Measured values published in article PMC3279696.

Molecular target: NLGN-1ΔAB-Fc (neuroligin-1 lacking splice inserts A and B, residues Q46-S693, with a C-terminal Fc domain) (UniProt Q62765)
Assay: SPR

Kd: 30 nM
Substance: β-NRXN-1 (ΔSS#4), soluble recombinant (domain or fragment)
